Assay results as given in patent US20070160982A1 (University of Texas, published 2007).

Target: GST-F2F3 (GST fusion of CPSF30 zinc fingers F2F3, amino acids 61-121) (UniProt P08515 1-218 = GST)

B1: M186 mutant NS1A protein (other)
chain: MDSNTVSSFQVDCFLWHVRKQVVDQELGDAPFLDRLRRDQKSLRGRGSTLGLNIEAATHVGKQIVEKILKEESDEALKMTMASTPASRYITDMTIEELSRDWFMLMPKQKVEGPLCIRIDQAIMDKNIMLKANFSVIFDRLETLILLRAFTEEGAIVGEISPLPSFPGHTIEDVKNAIGVLIGRFLRYDNTVRVSKTLQRFAWGSSNENGRPPLTPKQKRKMARTARSKVRRDKMAD
modifications: 35S-methionine label (in vitro translated)
- binding result: no binding
